# B1: Sp35-Fc: extra-cellular portion of human Sp35 (residues 1-532) fused to the hinge and Fc region of human IgG1 (protein)
# chain: TGCPPRCECSAQDRAVLCHRKRFVAVPEGIPTETRLLDLGKNRIKTLNQDEFASFPHLEELELNENIVSAVEPGAFNNLFNLRTLGLRSNRLKLIPLGVFTGLSNLTKLDISENKIVILLDYMFQDLYNLKSLEVGDNDLVYISHRAFSGLNSLEQLTLEKCNLTSIPTEALSHLHGLIVLRLRHLNINAIRDYSFKRLYRLKVLEISHWPYLDTMTPNCLYGLNLTSLSITHCNLTAVPYLAVRHLVYLRFLNLSYNPISTIEGSMLHELLRLQEIQLVGGQLAVVEPYAFRGLNYLRVLNVSGNQLTTLEESVFHSVGNLETLILDSNPLACDCRLLWVFRRRWRLNFNRQQPTCATPEFVQGKEFKDFPDVLLPNYFTCRRARIRDRKAQQVFVDEGHTVQFVCRADGDPPPAILWLSPRKHLVSAKSNGRLTVFPDGTLEVRYAQVQDNGTYLCIAANAGGNDSMPAHLHVRSYSPDWPHQPNKTFAFISNQPGE
# modifications: left off: a dimerising Fc or GST
# notes: extra-cellular portion of human Sp35 (residues 1-532) fused to the hinge and Fc region of human IgG1
# Experiments:
# [1] = system: differentiated PC12 cells; experiment: Apoptotic cell death in differentiated PC12 cells after NGF withdrawal (cell death ELISA / TUNEL); format: cell-based
# A2B5+ oligodendrocytes = experiment: Differentiation of A2B5+ oligodendrocytes treated with Sp35-Fc (O4 staining); format: cell-based, rat; settings: increasing concentrations versus control-Fc, 48 h, FIG. 8
# Procedure: Enriched populations of oligodendrocytes were grown from female Long Evans P2 rats as described by Conn, Meth. Neurosci. 2:1-4 (Academic Press; 1990) with modifications as follows. Briefly, the forebrain was dissected and placed in Hank's buffered salt solution (IBSS; Invitrogen). The tissue was cut into 1-mm fragments and was incubated at 37° C. for 15 min in 0.01% trypsin and 10 μg/ml DNase. Dissociated cells were plated on poly-L-lysine-coated T75 tissue culture flasks and were grown at 37° C. for 10 d in DMEM medium with 20% fetal calf serum (Invitrogen). Oligodendrocyte precursors (A2B5^+) were collected by shaking the flask overnight at 200 rpm at 37° C., resulting in a 95% pure population. Cultures were maintained in high-glucose Dulbecco's modified Eagle's medium (DMEM with FGF/PDGF (10 ng/ml; Peprotech) for 1 week. Removal of FGF/PDGF allowed A2B5+ cells to differentiate into O4^+ premyelinating oligodendrocytes after 3-7 d, and to differentiate into O4^+ and MBP^+ mature oligodendrocytes after 7-10 d. These differentiation states are readily apparent from changes in morphology: AB5^+ cells are bipolar in shape, O4^+ premyelinating oligodendrocytes have longer and more branched processes and MBP^+ mature oligodendrocytes contain myelin sheet structures between processes. […]
# cuprizone-treated mice = experiment: Cuprizone demyelination model, stereotactic injection into corpus callosum; format: in vivo; settings: injected at 2, 2.5 and 3 weeks of cuprizone feeding
# Source text: Adult wild-type C57B1/6 male mice were fed cuprizone (0.2% milled with ground mouse chow by weight) for 6 weeks to induce demyelination within the corpus callosum. Sp35-Fc was stereotactically injected into the demyelinating corpus callosum at 2, 2.5, and 3 weeks of cuprizone feeding. Control mice were stereotactically injected at the same intervals with sterilized media containing no Sp35-Fc. After 6 weeks of cuprizone feeding, the mice were returned to a normal diet for 2, 4 and 6 weeks (ground mouse chow only) to allow remyelination.
# The cuprizone-treated mice were anesthetized with ketamine (80 mg/kg body weight) and xylazine (10 mg/kg body weight) and positioned in an immobilization apparatus designed for stereotactic surgery (David Kopf Instruments). The scalp was opened and the sterile compounds injected (1 μM in […] of HBSS) unilaterally into the acutely demyelinated corpus callosum of the wild-type recipient mice with a […] Hamilton syringe using stereotactic coordinates of 0.7 mm posterior and 0.3 mm lateral to bregrna at a depth of 1.7 mm (Messier et al., Pharmacol. Biochem. Behav. 63(2): 313-18 (1999)). Additionally, control recipient mice were stereotactically injected with HBSS containing no compounds. The opening in the skull was filled with Gelfoam, and the area was swabbed with penicillin and streptomycin (Gibco) and the wound was sutured. […]
# RhoA-GTP = RhoA-GTP levels in oligodendrocyte lysates (western blotting); format: cell-based, rat; settings: versus corresponding control, FIG. 9A
# Source text: A strong candidate signaling pathway that is implicated in the control of oligodendrocyte differentiation is the Rho family of GTPases. Rho GTPases regulate cellular morphology, and reduced RhoA-GTP amounts are required for oligodendrocyte differentiation. See Liang, X, et al., J. Neurosci. 24:7140-7149 (2004). To determine whether Sp35 signals through the RhoA pathway, RhoAGTP levels in cell lysates of oligodendrocytes treated with Sp35-Fc were compared with levels in the corresponding control via western blotting.
# human ErbB2 = target: T1, human ErbB2 (Homo sapiens, UniProt P04626); experiment: AP-Sp35 binding to ErbB2-transfected CHO cells; settings: pre-incubation with soluble fusion protein, FIG. 17B
# T1 construct: expressed in transfected cells; host or cells: CHO cells, transient transfection with Fugene 6, assayed after 48 hours
# Procedure: ErbB2 is a member of the type I family of transmembrane receptor tyrosine kinases. The family comprises four members: epidermal growth factor receptor (EGFR or ErbB1), ErB2 (HER2 or neu), ErbB3 and ErbB4. Oligodendrocyte differentiation is positively regulated by the ErbB2 receptor tyrosine kinase. To examine the potential interaction between Sp35 and ErB2, an N-terminal AP-tagged human Sp35 protein was tested for binding to human ErbB2-transfected Chinese hamster ovary (CHO) cells.
# 90% confluent CHO cells were transfected with various combinations of human ErbB2 vector expression plasmid using Fugene 6 reagents (Roche). After 48 hours, the transfected cells were washed with HBH (Hank's balanced salt solution, 1 mg/ml BSA, 20 mM HEPES (pH 7.0)) and incubated for 1.5 hours at 23° C. or […] with 4 μg/ml of AP-Sp35 (human placental alkaline phosphotase (AP) with an N-terminal six histidine tag, fused to the C-terminus of human Sp35 (residues 34-532), as described in Mi et al., Nat. Neurosci. 7:221-228 (2004)) or control AP-protein in HBH. Bound AP-Sp35 was detected directly or following detergent lysis of the cells by ELISA and enzymatic activity was quantified with 4-NPP as described in Mi et al. Nat. Neurosci. 7:221-228 (2004).
# In order to identify the Sp35 domain that binds ErbB2, soluble truncated forms of AP-Sp35 were tested for binding. Both the LRR domain of Sp35 (amino acids 34-417 of SEQ ID NO:2) (AP-Sp35-LRR) and the extracellular domain of Sp35 (amino acids 34-532 of SEQ ID NO:2) (AP-Sp35) bound to ErbB2 expressed in CHO cells. […] FIGS. 17B and 17C.
# [2] = system: spinal cord injury in Long Evans rats; experiment: Spinal cord injury (dorsal hemisection), intrathecal mini-osmotic pump; format: in vivo, rat
# Procedure: Spinal cord injury was induced in adult female Long Evans rats (190-210 g; Charles River). A dorsal hemisection was performed at T6/T7, completely interrupting the main dorsomedial and the minor dorsolateral corticospinal tract (CST) components. The cord was sterotaxically transected at a depth of 1.8 mm from the surface using a microscalpel. […] Postoperative care comprised analgesia (Buprenorphine/Buprenex, Reckitt Benckiset Healthcare Ltd., 0.05 mg/kg subcutaneously) every 8-12 hours for 3 days and antibiotic treatment (ampicillin, Bristol Myers Squibb, 100 mg/kg subcutaneously twice daily) for 7 days after surgery. Bladders were expressed manually twice a day for the duration of the study (4 weeks) or until return of function. On completion of the study, rats were anesthetized and trans-cardially perfused with heparinized saline followed by 4% paraformaldehyde (PFA). The spinal cords were removed, embedded in paraffin, and 10 μm sections were cut from for histological analysis.
# To quantify apoptotic cell death after SCI, animals were euthanized 3 or 7 days after SCI and stained using anti-activated-Caspase-3 antibody (Cell Signaling Technologies) and TUNEL staining (Promega). The sections were also stained with anti-NeuN antibody (Chemicon) and anti-CC1 antibody (Calbiochem) to identify neurons and oligodendrocytes, respectively.
# mature oligodendrocytes = experiment: Mature oligodendrocyte survival and MBP expression; format: cell-based, rat
# Procedure: Mature oligodendrocytes have a half-life in vitro of about 48 to 72 hours, with cells typically undergoing apoptosis after 72 hours. […] MBP expression was monitored as a marker for mature ologodendrocytes.
molecule,measurement,setting,value
B1,cells undergoing apoptosis (TUNEL assay),"[1]; 18 hours after NGF withdrawal, versus control, FIG. 13 legend",fewer cells undergoing apoptosis
same,cell death (TUNEL ELISA),"[1]; 42 hours after withdrawal of NGF, FIG. 13",significantly reduced cell death
same,differentiation of A2B5+ cells into O4+ cells,A2B5+ oligodendrocytes,promoted differentiation
same,axon myelination by IHC using anti-MBP protein antibody or luxol fast blue,cuprizone-treated mice,increased
same,mature oligodendrocyte survival (CC1 antibody staining),cuprizone-treated mice; FIG. 12,increased mature oligodendrocyte survival
same,reduction in RhoA-GTP,RhoA-GTP,threefold reduction
same,AP-Sp35 binding to ErbB2-expressing cells after pre-incubation,human ErbB2,blocked
same,number of activated-Caspase-3-positive neurons and oligodendrocytes versus controls,"[2]; 3 days after SCI, 0.25 μl/h of 25 μM intrathecal",significantly smaller
same,neuron and oligodendrocyte survival in tissue surrounding the lesion site versus controls,"[2]; four weeks after SCI, anti-βIII-tubulin and anti-O4 staining",more neurons and oligodendrocytes survived
same,survival rate for mature oligodendrocytes,"mature oligodendrocytes; 10 μg/ml for 5 days, cell viability staining, versus control-Fc",significantly increased survival rate
same,increase in MBP protein expression,"mature oligodendrocytes; cell staining and Western blot with anti-MBP antibody, versus control-Fc treated cells",approximately 3 fold
